Test results published in US8143025B2, “Antibodies against vascular endothelial growth factor receptor-1” (ImClone LLC, priority 2004, dated 2012).

Legend:
[1] = biological target: T1, VEGFR-I on PAE-VEGFR-I expressing cells (Homo sapiens, UniProt P17948); assay: Surface VEGFR-I blocking assay (125I-VEGF); assay type: binding; conditions: porcine aorta endothelial cells, FIG. 9
T1 construct: host or cells: porcine aorta endothelial (PAE) cells
Method: The binding of ^125I-VEGF to VEGFR-I on cell surface was performed using PAE-VEGFR-I expressing cells. […] Confluent cells were incubated in serum- and growth supplement-free Dulbecco's Modified Eagle Medium (DMEM)ZF-12 medium (Invitrogen, Carlsbad, Calif.) for 24 hours. Cells were rinsed once with ice-cold DMEMZF-12 medium containing 0.025 M HEPES and 1 mgZml bovine serum albumin (BSA). A serial dilution of anti-VEGFR-I antibody 18F1 or cold VEGF at the concentration of a 200-fold molar excess of labeled VEGF was added to each well in the plate and incubated at 4° C. for 1 hour. After wash, ^125I-VEGF was added at the concentration of 2 ngZml and was incubated at 4° C. for 2 hours on a platform shaker. The cells were washed three times with PBS containing 1 mgZml BSA and 0.25 mM CaCl2, and were incubated for 5 minutes in the presence of 1% Triton X-100, 1 mgZml BSA, and 0.16% NaN3 to remove bound VEGF. The soluble content of each well was counted in a gamma counter. The assays were performed in triplicate in at least three independent experiments and the data were analyzed using Prism GraphPad software 3.03.

DU4475 carcinoma cells = assay: Cell growth assay (Example 5); assay type: cell-based, human; conditions: 3, 10, 30 μg/ml antibody, 50 ng/ml VEGF or 200 ng/ml PlGF, 48 hours
Method: DU4475 carcinoma cells were seeded at a density of 5×10^3/well into 96-well plates in serum-free conditions for 18 hours, and in some case followed by treatment with 100 nM of desferoxamine for additional 5 hours. Inhibitory effect of anti-VEGFR-I antibody on tumor cell growth was determined by incubation of cells with anti-VEGFR-I antibody clones 6F9, 13G12, 15F1 1, and 18F1 at doses of 3, 10, and 30 μg/ml in the presence of 50 ng/ml of VEGF or 200 ng/ml of PlGF for 48 hours. Viable cells were then counted in triplicate using a Coulter cytometer (Coulter Electronics Ltd. Luton, Beds, England). Each experiment was done in triplicate.

T1 sequence (P17948 27-1338): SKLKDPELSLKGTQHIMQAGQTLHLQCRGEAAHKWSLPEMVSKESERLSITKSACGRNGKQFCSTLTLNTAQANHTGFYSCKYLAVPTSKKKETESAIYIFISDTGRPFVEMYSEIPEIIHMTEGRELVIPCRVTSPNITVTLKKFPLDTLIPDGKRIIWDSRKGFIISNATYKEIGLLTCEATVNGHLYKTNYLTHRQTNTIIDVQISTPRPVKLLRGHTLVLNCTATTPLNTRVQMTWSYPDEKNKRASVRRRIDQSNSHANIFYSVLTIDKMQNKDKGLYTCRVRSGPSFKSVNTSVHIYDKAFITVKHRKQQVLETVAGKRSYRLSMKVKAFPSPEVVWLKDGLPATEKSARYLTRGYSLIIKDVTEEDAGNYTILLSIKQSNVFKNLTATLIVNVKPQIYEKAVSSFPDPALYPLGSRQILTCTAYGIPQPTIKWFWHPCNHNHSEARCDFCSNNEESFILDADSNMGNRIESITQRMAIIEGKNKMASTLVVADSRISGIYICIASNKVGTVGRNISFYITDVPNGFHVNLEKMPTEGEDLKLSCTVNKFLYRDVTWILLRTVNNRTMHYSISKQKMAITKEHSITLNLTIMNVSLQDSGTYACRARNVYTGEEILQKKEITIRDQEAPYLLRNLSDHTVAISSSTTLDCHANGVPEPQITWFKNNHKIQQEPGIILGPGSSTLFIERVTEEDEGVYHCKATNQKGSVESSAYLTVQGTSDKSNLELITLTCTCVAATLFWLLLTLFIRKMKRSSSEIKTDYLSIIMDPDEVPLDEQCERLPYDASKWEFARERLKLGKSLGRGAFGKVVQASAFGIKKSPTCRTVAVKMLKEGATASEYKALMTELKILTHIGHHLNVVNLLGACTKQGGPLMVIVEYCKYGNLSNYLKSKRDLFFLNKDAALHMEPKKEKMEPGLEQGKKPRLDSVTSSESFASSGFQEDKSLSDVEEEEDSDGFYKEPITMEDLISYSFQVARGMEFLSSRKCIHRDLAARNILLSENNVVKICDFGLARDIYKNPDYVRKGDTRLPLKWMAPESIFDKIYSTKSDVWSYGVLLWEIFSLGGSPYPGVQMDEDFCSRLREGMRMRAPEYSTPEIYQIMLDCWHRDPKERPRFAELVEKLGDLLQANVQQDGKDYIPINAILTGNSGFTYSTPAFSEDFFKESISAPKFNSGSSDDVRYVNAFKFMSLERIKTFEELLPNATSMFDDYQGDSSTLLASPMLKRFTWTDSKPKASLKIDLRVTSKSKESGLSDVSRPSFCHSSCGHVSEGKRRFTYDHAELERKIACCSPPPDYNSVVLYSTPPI

18F1: human anti-VEGFR-1 monoclonal antibody clone; VL SEQ ID NO: 16, VH SEQ ID NO: 20 [Clone 18F1]
blocking of 125I-VEGF binding to native VEGFR-I [1]: strong blocking activity | VEGF and PlGF stimulated proliferation of DU4475 breast carcinoma cells (DU4475 carcinoma cells): inhibition
